# B1: CPEB3 Ribozyme (parent)
# chain: GGGGGCCACAGCAGAAGCGUUCACGUCGCGGCCCCUGUCAGAUUCUGGUGAAUCUGCGAAUUCUGCUGU
# Variants of: B1
# Experiment: self-cleavage, relative activity (ratio to wild type); higher = more cleavage; co-transcriptional
row,Variant,self-cleavage
1,GGGGGCCACAGCAGAGGCGUUCACGUCGCGGCCCCUGUCAGAUUCUGCUGAAUCUGCGAAUUCUGCUGU,0.892
2,GGGGGCCACAGCAGAGGCGUUCGCGUCGCGGCCCCUGUCAGAUUCUGGUGAAUCUGCGAAUUCUGCUGU,0.921
3,GGGGGCCACAGCAGAGGCGUUCCCGUCGCGGCCCCUGUCAGAUUCUGGUGAAUCUGCGAAUUCUGCUGU,0.928
4,GGGGGCCACAGCAGAGGCGUUCUCGUCGCGGCCCCUGUCAGAUUCUGGUGAAUCUGCGAAUUCUGCUGU,0.955
5,GGGGGCCACAGCAGAGGCGUCCACGUCGCGGCCCCUGUCAGAUUCUGGUGAAUCUGCGAAUUCUGCUGU,0.777
6,GGGGGCCACAGCAGAGGCGUGCACGUCGCGGCCCCUGUCAGAUUCUGGUGAAUCUGCGAAUUCUGCUGU,0.395
7,GGGGGCCACAGCAGAGACGUUCACGUCGCGGCCCCUGUCAGAUUCUGGUGAAUCUGCGAAUUCUGCUGU,0.0854
8,GGGGGCCACAGCAGAGUCGUUCACGUCGCGGCCCCUGUCAGAUUCUGGUGAAUCUGCGAAUUCUGCUGU,0.559
9,GGGGGCCACAGCAGAGGCGUUCACGUCGCGGCCCCUGUCUGAUUCUGGUGAAUCUGCGAAUUCUGCUGU,0.409
10,GGGGGCCACAGCAGAGGCGUUCACGUCGCGGCCCCUGUCCGAUUCUGGUGAAUCUGCGAAUUCUGCUGU,0.243
11,GGGGGCCACAGCAGAGGCGUUCACGUCGCGGCGCCUGUCAGAUUCUGGUGAAUCUGCGAAUUCUGCUGU,0.29
12,GGGGGCCACAGCAGAGGCGUUCACGUCGCGGCUCCUGUCAGAUUCUGGUGAAUCUGCGAAUUCUGCUGU,0.946
13,GGGGGCCACAGCAGAGGCGUUCACGUCGCGGCCCCUGUCAGAUUCUGGUGAAUUUGCGAAUUCUGCUGU,0.928
14,GGGGGCCACAGCAGAGGCGUUCACGUCGCGGCCCCUGUCAGAUUCUGGUGAUUCUGCGAAUUCUGCUGU,0.804
15,GGGGGCCACAGCAGAGGCGUUCACGUCGCGGCCCCUGUCAGAUUCUGGUGAGUCUGCGAAUUCUGCUGU,0.87
16,GGGGGCCACAGCAGAGGCGUUCACGUCGCGGCCCCUGUCAGAUUCUGGUGAAUCUGCGAAUUCUGGUGU,0.646
17,GGGGGCCACAGCAGAGGCGUUCACGUCGCGGCCCCUGUCAGAUUCUGGUGAAUCUGCGAAUUCUGUUGU,0.89
18,GGGGGCCACAGCAGAGGCGUUCACGUCGCGGCCCCUGUCAGAUUCUGGUGAAUCUGCGAAUUAUGCUGU,0.648
19,GGGGGCCACAGCAGAGGCGUUCACGUCGCGGCCCCUGUCAGAUUCUGGUGAAUCUGCGAAUUGUGCUGU,0.527
20,GGGGGCCACAGCAGAGGAGUUCACGUCGCGGCCCCUGUCAGAUUCUGGUGAAUCUGCGAAUUCUGCUGU,0.0836

row,Variant,self-cleavage
1,GGGGGCCACAGCAGAGGUGUUCACGUCGCGGCCCCUGUCAGAUUCUGGUGAAUCUGCGAAUUCUGCUGU,0.569
2,GGGGGCCACAGCAGAGGCGUUCACGUCGCGGCCUCUGUCAGAUUCUGGUGAAUCUGCGAAUUCUGCUGU,0.845
3,GGGGGCCACAGCAGAGGCGUUCACGUCGCGGCCGCUGUCAGAUUCUGGUGAAUCUGCGAAUUCUGCUGU,0.576
4,GGGGGCCACAGCAGAGGCGUUCACGUCGCGGCCACUGUCAGAUUCUGGUGAAUCUGCGAAUUCUGCUGU,0.583
5,GGGGGCCACAGCAGAGGCGUUCACGUCGCGGCCCCUGUCAGAUUCUGGUGGAUCUGCGAAUUCUGCUGU,0.894
6,GGGGGCCACAGCAGAGGCGUUCACGUCGCGGCCCCUGUCAGAUUCUGGUGCAUCUGCGAAUUCUGCUGU,0.819
7,GGGGGCCACAGCAGAGGCGUUCACGUCGCGGCCCCUGUCAGAUUCUGGUGAAUCUGCGGAUUCUGCUGU,0.944
8,GGGGGCCACAGCAGAGGCGUUCACGUCGCGGCCCCUGUCAGAUUCUGGUGAAUCUGCGCAUUCUGCUGU,0.417
9,GGGGGCCACAGCAGAGGCGUUCACGUCGCGGCCCCUGUCACAUUCUGGUGAAUCUGCGAAUUCUGCUGU,0.41
10,GGGGGCCACAGCAGAGGCGUUCACGUCGCGGCCCCUGUCAUAUUCUGGUGAAUCUGCGAAUUCUGCUGU,0.472
11,GGGGGCCACAGCAGAGGCGUUCACGUCGCGGCCCCUGCCAGAUUCUGGUGAAUCUGCGAAUUCUGCUGU,0.665
12,GGGGGCCACAGCAGAGGCGUUCACGUCGCGGCCCCUGACAGAUUCUGGUGAAUCUGCGAAUUCUGCUGU,0.767
13,GGGGGCCACAGCAGAGGCGUUCACGUCGCGGCCCCUGUCAGAUUCUGGUGAAUCUACGAAUUCUGCUGU,0.703
14,GGGGGCCACAGCAGAGGCGUUCACGUCGCGGCCCCUGUCAGAUUCUGGUGAAUCUCCGAAUUCUGCUGU,0.458
15,GGGGGCCACAGCAGAGGCGUUCACGUCGCGGCCCCUGUCAGAUUUUGGUGAAUCUGCGAAUUCUGCUGU,0.884
16,GGGGGCCACAGCAGAGGCGUUCACGUCGCGGCCCCUGUCAGAUUAUGGUGAAUCUGCGAAUUCUGCUGU,0.811
17,GGGGGCCACAGCAGAGGCGUUCACGUCGCGGCCCCUGUCAGAUUGUGGUGAAUCUGCGAAUUCUGCUGU,0.958
18,GGGGGCCACAGCAGAGGCGUUCACGUCGCGGCCCCUCUCAGAUUCUGGUGAAUCUGCGAAUUCUGCUGU,0.146
19,GGGGGCCACAGCAGAGGCGUUCACGUCGCGGCCCCUUUCAGAUUCUGGUGAAUCUGCGAAUUCUGCUGU,0.216
